This is an account of results in patent publication US20040229241A1, “Cloned mammalian polyamine oxidase” (priority 2001, published 2004).

For orientation: Km means the concentration of substrate that gives half-maximal velocity.

Substrate in data set [1]: NCCCNCCCCNCCCN
As to the kind of experiment: cells, lysate or membranes named. Conditions: other: named compound as substrate, Lineweaver-Burk; 37.0 °C.

Substrate in data set [2]: NCCCNCCCCNCCCN
Briefly: PAO activity of in vitro TnT (wheat germ) produced PAOh1, fluorescent H2O2 assay. Conditions: other: Lineweaver/Burke transformation; pH 9.0; 37.0 °C. The format is biochemical, human. On the procedure:
In Vitro Transcription and Translation. In vitro transcription and translation reactions were performed with the TnT-coupled wheat germ extract system. Parallel reactions were prepared by adding an unlabeled amino acid mixture to one reaction and a [^35S]methionine containing amino acid mixture to the other, according to the supplied protocol. Vector pcDNA3.1 and pPAOh1 were linearized by SalI restriction and served as the templates. The labeled translation reactions products were separated by 10% SDS-PAGE, and radioactivity on the labeled PAO band was determined by Phosphor image analysis using Image Quant software (Molecular Dynamics, Sunnyvale, Calif.).
Determination of PAO Enzyme Activity. The cultured H157 cells with or without treatment of 10 μM N^1, N″-bis(ethyl)norspermine (BENSpm) were homogenized with a Dounce tissue homogenizer in ice-cold 0.083 M sodium borate buffer (pH 9.0). […] The enzyme activity was stopped by the addition of 2.0 ml of 0.1 M NaOH solution. The fluorescence intensity was measured with excitation at 323 nm and emission at 426 nm. […] Protein content of the cellular homogenate was determined using the Bio-Rad protein assay kit (Bio-Rad). […] For determination of PAO activity in the product of the unlabeled TnT reaction, 10 μl of TnT reaction were used in the place of the homogenate. […]

B1: purified recombinant human PAOh1/SMO (Homo sapiens) (protein)
chain: MQSCESSGDSADDPLSRGLRRRGQPRVVVIGAGLAGLAAAKALLEQGFTDVTVLEASSHIGGRVQSVKLGHATFELGATWIHGSHGNPIYHLAEANGLLEETTDGERSVGRISLYSKNGVACYLTNHGRRIPKDVVEEFSDLYNEVYNLTQEFFRHDKPVNAESQNSVGVFTREEVRNRIRNDPDDPEATKRLKLAMIQQYLKVESCESSSHSMDEVSLSAFGEWTEIPGAHHIIPSGFMRVVELLAEGIPAHVIQLGKPVRCIHWDQASARPRGPEIEPRGEGDHNHDTGEGGQGGEEPRGGRWDEDEQWSVVVECEDCELIPADHVIVTVSLGVLKRQYTSFFRPGLPTEKVAAIHRLGIGTTDKIFLEFEEPFWGPECNSLQFVWEDEAESHTLTYPPELWYRKICGFDVLYPPERYGHVLSGWICGEEALVMEKCDDEAVAEICTEMLRQFTGNPNIPKPRRILRSAWGSNPYFRGSYSYTQVGSSGADVEKLAKPLPYTESSKTAPMQVLFSGEATHRKYYSTTHGALLSGQREAARLIEMYRDLFQQGT
Turning to B1, in data set [1], the Km came out at 1.63 µM and the Vmax was determined as 7.72 μmol/mg protein/min.

B2: human PAOh1 (Homo sapiens) (protein)
chain: B1 chain
notes: made in house; host or cells: TnT-coupled wheat germ extract (Promega), template pPAOh1 (pcDNA3.1)
On to B2, for which the Km in data set [2] amounted to 18 µM.
